Test results published in US20220042018, “APTAMERS AND THE USE THEREOF IN THE TREATMENT OF CANCER” (FUNDACIÓn PARA LA INVESTIGACIÓn BIOMÉDICA …, published 2022).

Columns and labels:
MNK1b (MKNK1 isoform b) [1] = biological target: T1, MNK1b (MKNK1 isoform b) (UniProt Q9BUB5-3 Q9BUB5-3:1-347); assay: ELONA; BSA-free aptamer buffer, 37 C; four-fold higher affinity than MNK1a; preferentially recognised in native apta-western; details: tags: GST fusion; label: biotin; G4 (parallel, five-tiered from 3- and 2-tier quadruplexes)
T1 sequence (Q9BUB5 other isoform, or with tags, fused parts or gaps): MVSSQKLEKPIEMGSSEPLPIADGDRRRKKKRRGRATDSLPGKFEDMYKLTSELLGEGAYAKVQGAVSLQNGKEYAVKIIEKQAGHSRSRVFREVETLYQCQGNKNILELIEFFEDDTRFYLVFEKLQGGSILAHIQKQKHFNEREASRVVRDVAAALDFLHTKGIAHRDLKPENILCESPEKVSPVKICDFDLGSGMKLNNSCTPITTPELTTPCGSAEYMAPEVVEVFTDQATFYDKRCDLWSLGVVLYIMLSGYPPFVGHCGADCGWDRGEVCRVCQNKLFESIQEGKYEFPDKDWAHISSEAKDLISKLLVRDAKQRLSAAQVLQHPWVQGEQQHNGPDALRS
Procedure: (§1) To determine the binding of the aptamers to MNK1a or MNK1b, 200 ng of protein/well diluted in a coating solution (KPL, USA) in a final volume of 100 μL/well were added to a Maxisorp Nunc 96-well ELISA plate (ThermoFisher Scientific, USA). The plate was incubated overnight at 4° C. under stirring. Aptamers were then added at the corresponding concentration according to the assay, in a final volume of 100 μL/well of BSA-free aptamer buffer for 1 hour at 37° C. under stirring. All the aptamers used were labeled with biotin and had been previously denatured at 90° C. for 10 minutes and then kept at 4° C. for 10 minutes in the BSA-free aptamer buffer. To detect the binding of the aptamer to the protein, 100 μL/well of streptavidin-peroxidase (GE Healthcare, United Kingdom) diluted 1/1000 in the aptamer buffer at 37° C. for 1 hour under stirring were added. To develop the plate, 100 μL/well of ABTS solution (Roche, Switzerland) were added, and it was incubated in darkness at room temperature, with measurements being taken every 10 minutes at a wavelength of 405 nm in an Infinite F200 spectrophotometer (TECAN, Switzerland).
(§2) To analyze the affinity of the new aptamer apMNKQ2, ELONA assays were carried out with the four MNK1 constructs.

MNK1a (MKNK1 isoform a) [2] = biological target: T2, MNK1a (MKNK1 isoform a) (UniProt Q9BUB5-2 Q9BUB5-2:1-424); assay: ELONA; BSA-free aptamer buffer, 37 C; also detected in apta-western; details: tags: GST fusion; label: biotin; G4 (parallel, five-tiered from 3- and 2-tier quadruplexes)
T2 sequence (Q9BUB5 other isoform, or with tags, fused parts or gaps): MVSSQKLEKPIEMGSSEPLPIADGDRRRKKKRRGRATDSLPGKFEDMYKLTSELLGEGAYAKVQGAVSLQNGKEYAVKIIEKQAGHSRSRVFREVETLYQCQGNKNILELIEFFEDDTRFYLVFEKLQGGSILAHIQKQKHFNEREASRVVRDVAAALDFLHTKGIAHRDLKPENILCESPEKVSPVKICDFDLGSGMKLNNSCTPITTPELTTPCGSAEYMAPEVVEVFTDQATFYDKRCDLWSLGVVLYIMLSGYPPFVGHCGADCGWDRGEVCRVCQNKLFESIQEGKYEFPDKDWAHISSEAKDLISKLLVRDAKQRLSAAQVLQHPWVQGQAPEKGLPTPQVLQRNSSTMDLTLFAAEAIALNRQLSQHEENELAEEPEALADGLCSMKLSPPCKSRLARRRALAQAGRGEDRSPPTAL
Procedure: as §1, §2

MNK1a (MKNK1 isoform a) [3] = biological target: T2, MNK1a (MKNK1 isoform a); assay: recognised both isoforms in a similar manner; data not shown; details: tags: GST fusion; label: biotin; G4 predicted
MNK1b (MKNK1 isoform b) [4] = biological target: T1, MNK1b (MKNK1 isoform b); assay: as above; details: tags: GST fusion; label: biotin; G4 predicted

Binder	Kd (MNK1b (MKNK1 isoform b) [1]) [nM]	Kd (MNK1a (MKNK1 isoform a) [2]) [nM]	binding result (MNK1a (MKNK1 isoform a) [3])	binding result (MNK1b (MKNK1 isoform b) [4])
TGGGGTGGGCGGGCGGGGGTGGGGGTGGT (structured_DNA) [apMNKQ2]	15.5	66.1	–	–
TTTTTGGGGTGGGCGGGCGGGGGTGGGGGTGGTATGGCGCGTTGGCCC (structured_DNA) [apMNK2FT]	–	–	binds	binds
